Results from patent US20240252589A1, “AGENT FOR ENHANCING PHAGOCYTOSIS ABILITY OF NEUTROPHILS” (priority 2018, published 2024).

What was measured:
Human neutrophils [1] = assay: Phagocytosis ability of neutrophils against Escherichia coli (pHrodo indicator, InCell Analyzer); type: cell-based
Procedure: (§1) Phagocytosis ability of neutrophils against Escherichia coli (a gram-negative bacterium) or Staphylococcus aureus (a gram-positive bacterium) was measured with a pHrodo™ indicator. Phagosomes within neutrophils can be fluorescence-stained with a pHrodo™ staining reagent to measure their phagocytosis ability. Human neutrophils were separated from the whole blood using a hemocyte separation solution Polymorphprep™, and the cell solution was washed with PBS to perform suspension. The numbers of cells were adjusted, and the cells were stained with Hoechst33342 (nucleus staining: blue) and calcein-AM (cytoplasm: green) by incubation under CO2 at 37° C. for 15 min. Neutrophil solutions were resuspended in HBSS, and the numbers of cells were adjusted (2×10^6 cells/mL).
(§2) To the neutrophil liquids at the cell concentration, hHRG solutions were added, and the mixtures were dispensed to a 96-well plate, allowing incubation under CO2 at 37° C. for 30 min. Then, Escherichia coli (pHrodo™ Escherichia coli) or Staphylococcus aureus (pHrodo™ Staphylococcus aureus) was added to the 96-well plate, and incubated under CO2 at 37° C. In this Example, the final concentration of the cell liquids was 2×10^4 cells/well (2×10^5 cells/mL), the final concentrations of HRG were from 0.01 μM to 3.0 μM, and the final concentration of pHrodo™ Escherichia coli or pHrodo™ Staphylococcus aureus was 25 μg/well (250 μg/mL). The incubation of Escherichia coli was for 60 min, and that of Staphylococcus aureus was for 120 min.
(§3) Through use of InCell Analyzer (GE Healthcare), the amounts of red-colored pHrodo by neutrophils' uptake were analyzed by image analysis and quantification to observe the phagocytosis ability of neutrophils.
To the neutrophil liquids at the cell concentration (2×10^6 cells/mL), each solution of hHRG, rHRG, or HRG-Fc was added to observe the phagocytosis ability of neutrophils against Escherichia coli or Staphylococcus aureus by the same procedure as Experimental Example 1 (HRG final concentrations of from 0.1 μM to 3.0 μM). […] The amounts of red-colored pHrodo by neutrophils' uptake can be imaged and quantified to observe the phagocytosis ability of neutrophils.

Human neutrophils [2] = assay: Phagocytosis ability of neutrophils against Staphylococcus aureus (pHrodo indicator, InCell Analyzer); type: cell-based
Procedure: as §1, §2
as §3, with “neutrophils. The analysis results of phagocytosis ability of neutrophils against Escherichia coli and Staphylococcus aureus are shown in FIG. 4A and FIG. 4B.” for “neutrophils.”
To the neutrophil liquids at the cell concentration (2×10^6 cells/mL), each solution of hHRG, rHRG, or HRG-Fc was added to observe the phagocytosis ability of neutrophils against Escherichia coli or Staphylococcus aureus by the same procedure as Experimental Example 1 (HRG final concentrations of from 0.1 μM to 3.0 μM). As an observation experiment, phagocytosis ability of neutrophils against Escherichia coli or Staphylococcus aureus was observed, when each of different anti-HRG antibodies or control antibodies was added. The amounts of red-colored pHrodo by neutrophils' uptake can be imaged and quantified to observe the phagocytosis ability of neutrophils. […]

neutrophils [3] = assay: Opsonin effect 1: phagocytosis by neutrophils of pHrodo Red Zymosan treated with serum containing HRG or no HRG; type: cell-based, Human; details: Zymosan 500 μg/mL; HRG 1.0 μM; 120 min; compared with serum containing no HRG
Procedure: In this Experimental Example, the effect of HRG on opsonization (Op) was observed using serum containing HRG or no HRG. Healthy human serum was used for opsonization (Op). In this Experimental Example, the “serum containing HRG” refers to untreated, healthy human serum. In this Experimental Example, the “serum containing no HRG” refers to human serum in which a Ni-NTA agarose gel is added to human serum to adsorb HRG in the serum, and then the Ni-NTA agarose gel is removed by centrifugation.
Zymosan (pHrodo™ Red Zymosan, manufactured by Thermo Fisher Scientific Inc.) was blended with serum containing HRG or no HRG at 4° C., and then the mixture was stirred well by ultrasonic homogenization. After the stirring, centrifugation was performed at 4° C. and 15,000 rpm for 15 min. The supernatant was discarded and the sediment was suspended in HBSS. This washing procedure was repeated twice, and then Zymosan was suspended in HBSS. The concentration of Zymosan at this time of point was 1.0 mg/mL.
To the neutrophil liquids, hHRG solutions were added, and the mixtures were dispensed to a 96-well plate, allowing incubation under CO2 at 37° C. for 30 min. […] Through use of InCell Analyzer (GE Healthcare), the amounts of red-colored pHrodo by neutrophils' uptake were analyzed by image analysis and quantification to observe the phagocytosis ability of neutrophils.

neutrophils [4] = assay: Opsonin effect 2: phagocytosis by neutrophils of pretreated Escherichia coli; type: cell-based, Human
Procedure: (§4) Escherichia coli (pHrodo™ Escherichia coli) or Staphylococcus aureus (pHrdo™ Staphylococcus aureus) was pre-incubated with human serum albumin (HSA, 1.0 μM), hHRG (1.0 μM), or 5-fold-diluted human serum (1/5 Serum) at 37° C. for 15 min, and then Escherichia coli or Staphylococcus aureus was washed twice with HBSS. […] A hHRG solution was added to a neutrophil solution. The mixture was dispensed to a 96-well plate and incubated under CO2 at 37° C. for 30 min. Then, the Escherichia coli or Staphylococcus aureus pretreated with the above-mentioned HSA or HRG solution, or 5-fold-diluted human serum was added, and the resulting mixture was dispensed to the 96-well plate and incubated under CO2 at 37° C. for 120 min. The final concentration of the cell liquid at this time was 2×10^4 cells/well (2×10^5 cells/mL), the final concentration of HSA or HRG was […], and the final concentration of […] was 25 μg/well (250 μg/mL). Through use of InCell Analyzer (GE Healthcare), the amounts of red-colored pHrodo by neutrophils' uptake were analyzed by image analysis and quantification to observe the phagocytosis ability of neutrophils.

neutrophils [5] = assay: Opsonin effect 2: phagocytosis by neutrophils of pretreated Staphylococcus aureus; type: cell-based, Human
Procedure: as §4

[6] = Experimental Example 2, final concentrations 0.1 μM to 3.0 μM
[7] = Experimental Example 3, 1.0 μM hHRG, antibodies 10 μM
[8] = bacteria pre-incubated 37° C. 15 min with hHRG 1.0 μM or 5-fold-diluted human serum
[9] = compared to un-opsonized (UnOp) bacterial cells, HRG added to neutrophils

B1: rHRG: Recombinant human HRG expressed in CHO cells, purified on Ni-NTA agarose (protein)
chain: EFRMGKALIAALLLITLQYSCAVSPTDCSAVEPEAEKALDLINKRRRDGYLFQLLRIADAHLDRVENTTVYYLVLDVQESDCSVLSRKYWNDCEPPDSRRPSEIVIGQCKVIATRHSHESQDLRVIDFNCTTSSVSSALANTKDSPVLIDFFEDTERYRKQANKALEKYKEENDDFASFRVDRIERVARVRGGEGTGYFVDFSVRNCPRHHFPRHPNVFGFCRADLFYDVEALDLESPKNLVINCEVFDPQEHENINGVPPHLGHPFHWGGHERSSTTKPPFKPHGSRDHHHPHKPHEHGPPPPPDERDHSHGPPLPQGPPPLLPMSCSSCQHATFGTNGAQRHSHNNNSSDLHPHKHHSHEQHPHGHHPHAHHPHEHDTHRQHPHGHHPHGHHPHGHHPHGHHPHGHHPHCHDFQDYGPCDPPPHNQGHCCHGHGPPPGHLRRRGPGKGPRPFHCRQIGSVYRLPPLRKGEVLPLPEANFPSFPLPHHKHPLKPDNQPFPQSVSESCPGKFKSGFPQVSMFFTHTFPKPLE
modifications: misc_feature 1..1596 EcoR1-HRG-Xho1
notes: Recombinant human HRG expressed in CHO cells, purified on Ni-NTA agarose
enhancement of phagocytosis of neutrophils against Escherichia coli (Human neutrophils [1]; [6]): to the same extent as hHRG | enhancement of phagocytosis of neutrophils against Staphylococcus aureus (Human neutrophils [2]; [6]): to the same extent as hHRG

B2: HRG: Human plasma-derived histidine-rich glycoprotein, about 80 kDa, purified by Ni-NTA affinity and Mono Q chromatography (protein)
chain: VSPTDCSAVEPEAEKALDLINKRRRDGYLFQLLRIADAHLDRVENTTVYYLVLDVQESDCSVLSRKYWNDCEPPDSRRPSEIVIGQCKVIATRHSHESQDLRVIDFNCTTSSVSSALANTKDSPVLIDFFEDTERYRKQANKALEKYKEENDDFASFRVDRIERVARVRGGEGTGYFVDFSVRNCPRHHFPRHPNVFGFCRADLFYDVEALDLESPKNLVINCEVFDPQEHENINGVPPHLGHPFHWGGHERSSTTKPPFKPHGSRDHHHPHKPHEHGPPPPPDERDHSHGPPLPQGPPPLLPMSCSSCQHATFGTNGAQRHSHNNNSSDLHPHKHHSHEQHPHGHHPHAHHPHEHDTHRQHPHGHHPHGHHPHGHHPHGHHPHGHHPHCHDFQDYGPCDPPPHNQGHCCHGHGPPPGHLRRRGPGKGPRPFHCRQIGSVYRLPPLRKGEVLPLPEANFPSFPLPHHKHPLKPDNQPFPQSVSESCPGKFKSGFPQVSMFFTHTFPK
HRG concentration at which phagocytosis ability reached a plateau (Human neutrophils [1]; Experimental Example 1, Escherichia coli): 0.3 M | phagocytosis ability of neutrophils against Escherichia coli (Human neutrophils [1]; Experimental Example 1, hHRG 0.01 μM to 3.0 μM, 30 min preincubation, 60 min with pHrodo E. coli): enhanced | phagocytosis ability of neutrophils against Escherichia coli (Human neutrophils [1]; [7]): enhanced | HRG concentration at which phagocytosis ability reached a plateau (Human neutrophils [2]; Experimental Example 1, Staphylococcus aureus): 0.3 µM | phagocytosis ability of neutrophils against Staphylococcus aureus (Human neutrophils [2]; Experimental Example 1, hHRG 0.01 μM to 3.0 μM, 30 min preincubation, 120 min with pHrodo S. aureus): enhanced | phagocytosis ability of neutrophils against Staphylococcus aureus (Human neutrophils [2]; [7]): enhanced | amount of phagocytosis by neutrophils of serum-treated Zymosan (opsonin effect) (neutrophils [3]): opsonin (Op)-enhancing effect | opsonin (Op)-enhancing effect of pretreatment of Escherichia coli (neutrophils [4]; [8]): did not exhibit an opsonin (Op)-enhancing effect | phagocytosis ability of neutrophils of Escherichia coli opsonized with human sera on addition of HRG (neutrophils [4]; [9]): highly enhanced | opsonin (Op)-enhancing effect of pretreatment of Staphylococcus aureus (neutrophils [5]; [8]): did not exhibit an opsonin (Op)-enhancing effect | phagocytosis ability of neutrophils of Staphylococcus aureus opsonized with human sera on addition of HRG (neutrophils [5]; [9]): highly enhanced
